These results are taken from the Human Domainome abundance scans (Beltran et al. 2025).

Sequences and labels used below:
B1: Chromodomain-helicase-DNA-binding protein 4, residues 623 to 675; numbered along this chain, Q14839 (parent)
chain: MIHRILNHSVDKKGHVHYLIKWRDLPYDQASWESEDVEIQDYDLFKQSYWNHR

± gives the uncertainty stated by the source.

The series covers variants of B1. Put plainly: abundance fitness (aPCA) (normalised: wild type 0, dead -1); higher = more abundant; growth selection in yeast, the domain comes from the species named. The following applies: Homo sapiens.
In the case of W22C, the abundance fitness is -0.793 ± 0.14.
W22A: the abundance fitness is -0.889 ± 0.14.
Next, W22Q: -0.796 ± 0.17.
As to W22N, the abundance fitness was -1.13 ± 0.37.
To W22G belongs -0.88 ± 0.16; to W22M, -0.447 ± 0.18; to W22K, -0.891 ± 0.23.
To W22S belongs -0.806 ± 0.097; to W22H, -0.733 ± 0.18.
In the case of W22L, the abundance fitness was -0.795 ± 0.091.
As to W22T, the abundance fitness was -0.871 ± 0.15.
With W22E, the abundance fitness is -0.823 ± 0.2.
Turning to W22F, the abundance fitness is -0.825 ± 0.16.
Take W22P: the abundance fitness is -0.959 ± 0.15.
Next, W22R: -0.855 ± 0.12; W22I: -0.797 ± 0.23; W22V: -0.55 ± 0.11.
Take L19H: the abundance fitness is -0.814 ± 0.2.
L19F: the abundance fitness was -0.518 ± 0.21.
Regarding L19S, the abundance fitness was -0.703 ± 0.17.
In the case of L19I, the abundance fitness is -0.772 ± 0.46.
With L19A, the abundance fitness is -0.892 ± 0.23.
In the case of L19D, the abundance fitness was -0.71 ± 0.27.
In the case of L19W, the abundance fitness is -0.866 ± 0.27.
With L19T, the abundance fitness is -0.775 ± 0.3.
As for L19C, the abundance fitness is -0.924 ± 0.27.
Consider L19Y, for which the abundance fitness was -0.282 ± 0.26.
As for L19V, the abundance fitness was -0.814 ± 0.14.
As to L19P, the abundance fitness is -0.74 ± 0.24.
On to L19N, for which the abundance fitness is -0.262 ± 0.35.
On to L19G, for which the abundance fitness is -0.604 ± 0.17.
To H17F belongs -0.312 ± 0.2.
For the variant H17I, the abundance fitness was -0.068 ± 0.13.
Regarding H17N, the abundance fitness was -0.052 ± 0.15.
H17P: the abundance fitness was -0.91 ± 0.25.
Next, H17G: -0.756 ± 0.094; H17K: 0.094 ± 0.11; H17V: -0.485 ± 0.085.
With H17L, the abundance fitness is -0.292 ± 0.084.
To H17A belongs -0.252 ± 0.091; to H17T, 0.115 ± 0.11.
For the variant H17W, the abundance fitness was -0.302 ± 0.11.
Consider H17R, for which the abundance fitness is -0.174 ± 0.077.
As for H17S, the abundance fitness was -0.155 ± 0.094.
Turning to H17Y, the abundance fitness is -0.04 ± 0.11.
Consider H17C, for which the abundance fitness amounted to 0.031 ± 0.15.
To H17Q belongs -0.098 ± 0.12; to H17D, -0.43 ± 0.12; to H17M, -0.034 ± 0.094.
Consider H17E, for which the abundance fitness is -0.242 ± 0.093.
Regarding H8F, the abundance fitness was -0.875 ± 0.18.
To H8D belongs -0.92 ± 0.16; to H8P, -0.831 ± 0.17; to H8N, -0.75 ± 0.17.
For H8T, the abundance fitness was -0.791 ± 0.21.
Take H8M: the abundance fitness is -0.847 ± 0.14.
For the variant H8K, the abundance fitness was -0.956 ± 0.24.
As to H8A, the abundance fitness was -0.857 ± 0.14.
Take H8Y: the abundance fitness was -0.803 ± 0.14.
Regarding H8I, the abundance fitness was -0.645 ± 0.12.
Next, H8G: -0.832 ± 0.11; H8L: -0.806 ± 0.09.
Take H8E: the abundance fitness was -0.69 ± 0.17.
As for H8V, the abundance fitness is -0.918 ± 0.092.
H8C: the abundance fitness is -0.647 ± 0.15.
Turning to H8W, the abundance fitness was -0.863 ± 0.15.
Next, H8Q: -0.813 ± 0.2; H8S: -0.713 ± 0.11; H8R: -0.634 ± 0.1.
In the case of K13L, the abundance fitness is -0.36 ± 0.078.
For the variant K13Q, the abundance fitness is -0.133 ± 0.11.
To K13V belongs -0.263 ± 0.088; to K13H, -0.062 ± 0.09.
For K13Y, the abundance fitness was -0.214 ± 0.092.
For the variant K13W, the abundance fitness was -0.492 ± 0.16.
On to K13I, for which the abundance fitness is -0.588 ± 0.1.
On to K13S, for which the abundance fitness is -0.098 ± 0.073.
As for K13N, the abundance fitness was -0.123 ± 0.093.
Next, K13G: -0.335 ± 0.089; K13R: -0.196 ± 0.084; K13D: 0.098 ± 0.1.
As for K13T, the abundance fitness was -0.344 ± 0.088.
In the case of K13F, the abundance fitness is -0.079 ± 0.088.
For the variant K13P, the abundance fitness is -0.828 ± 0.11.
As for K13C, the abundance fitness was -0.267 ± 0.093.
Next, K13E: -0.066 ± 0.13; K13M: -0.162 ± 0.12; K13A: -0.25 ± 0.085.
With V10I, the abundance fitness is -0.286 ± 0.097.
On to V10K, for which the abundance fitness was -0.144 ± 0.12.
As to V10T, the abundance fitness is -0.093 ± 0.1.
Consider V10Q, for which the abundance fitness is -0.377 ± 0.14.
V10L: the abundance fitness was -0.332 ± 0.08.
Take V10H: the abundance fitness was -0.557 ± 0.14.
Consider V10R, for which the abundance fitness was -0.262 ± 0.085.
Turning to V10W, the abundance fitness was -0.533 ± 0.13.
Consider V10S, for which the abundance fitness was -0.47 ± 0.089.
Regarding V10Y, the abundance fitness was determined as 0.115 ± 0.12.
With V10G, the abundance fitness was -0.895 ± 0.11.
Regarding V10M, the abundance fitness was -0.495 ± 0.1.
To V10E belongs -0.447 ± 0.12; to V10C, -0.562 ± 0.12; to V10F, -0.207 ± 0.11.
V10N: the abundance fitness is -0.714 ± 0.14.
For the variant V10D, the abundance fitness is -0.682 ± 0.15.
Next, V10P: -0.571 ± 0.12.
For the variant R4D, the abundance fitness is -0.479 ± 0.17.
Take R4E: the abundance fitness is 0.058 ± 0.14.
Next, R4M: -0.136 ± 0.12.
To R4G belongs -0.481 ± 0.1; to R4H, -0.108 ± 0.14.
Take R4V: the abundance fitness was -0.371 ± 0.11.
With R4P, the abundance fitness was -0.788 ± 0.14.
R4N: the abundance fitness is -0.331 ± 0.15.
To R4K belongs 0.145 ± 0.11; to R4Y, -0.102 ± 0.15.
For R4Q, the abundance fitness was -0.233 ± 0.16.
Next, R4T: -0.047 ± 0.1; R4A: -0.535 ± 0.15; R4W: -0.263 ± 0.12.
As to R4S, the abundance fitness is -0.117 ± 0.087.
In the case of R4C, the abundance fitness is -0.08 ± 0.11.
Take R4L: the abundance fitness was -0.221 ± 0.09.
Regarding I5C, the abundance fitness is -1.07 ± 0.18.
Consider I5S, for which the abundance fitness is -0.823 ± 0.12.
Turning to I5Q, the abundance fitness is -0.591 ± 0.2.
Turning to I5N, the abundance fitness was -1.01 ± 0.21.
As to I5R, the abundance fitness was -0.81 ± 0.11.
To I5W belongs -0.767 ± 0.2.
With I5L, the abundance fitness is -0.497 ± 0.099.
I5H: the abundance fitness was -0.721 ± 0.13.
Next, I5F: -0.827 ± 0.16; I5P: -0.522 ± 0.14; I5G: -0.933 ± 0.15.
Take I5M: the abundance fitness was -0.746 ± 0.21.
In the case of I5D, the abundance fitness is -0.999 ± 0.2.
I5Y: the abundance fitness was -1.02 ± 0.19.
Next, I5T: -0.914 ± 0.14; I5A: -0.778 ± 0.14; I5V: -0.842 ± 0.14.
Take D11P: the abundance fitness was -0.913 ± 0.13.
On to D11A, for which the abundance fitness was -0.679 ± 0.12.
With D11Q, the abundance fitness was -0.928 ± 0.21.
As for D11G, the abundance fitness was -0.597 ± 0.15.
On to D11W, for which the abundance fitness is -0.694 ± 0.22.
With D11K, the abundance fitness is -1.03 ± 0.36.
Take D11Y: the abundance fitness is -0.792 ± 0.12.
For the variant D11I, the abundance fitness is -0.812 ± 0.12.
Next, D11N: -0.201 ± 0.085; D11C: -0.403 ± 0.12.
For D11M, the abundance fitness was -1.09 ± 0.28.
To D11R belongs -0.762 ± 0.12; to D11V, -0.951 ± 0.14.
Take D11T: the abundance fitness is -0.518 ± 0.097.
As for D11L, the abundance fitness is -0.875 ± 0.1.
With D11E, the abundance fitness was -0.499 ± 0.22.
Next, D11S: -0.305 ± 0.084; N7T: -0.162 ± 0.077; N7H: -0.26 ± 0.085.
Next, N7R: -0.263 ± 0.089; N7Y: -0.449 ± 0.09; N7S: -0.112 ± 0.071.
N7D: the abundance fitness worked out at 0.013 ± 0.11.
As for N7A, the abundance fitness is -0.068 ± 0.097.
For N7W, the abundance fitness is -0.586 ± 0.19.
For N7G, the abundance fitness was -0.356 ± 0.12.
As for N7Q, the abundance fitness is -0.101 ± 0.13.
